For one data set, the target named is T1, σJ (Mycobacterium tuberculosis, UniProt L0TCG5 1-312).
T1 sequence: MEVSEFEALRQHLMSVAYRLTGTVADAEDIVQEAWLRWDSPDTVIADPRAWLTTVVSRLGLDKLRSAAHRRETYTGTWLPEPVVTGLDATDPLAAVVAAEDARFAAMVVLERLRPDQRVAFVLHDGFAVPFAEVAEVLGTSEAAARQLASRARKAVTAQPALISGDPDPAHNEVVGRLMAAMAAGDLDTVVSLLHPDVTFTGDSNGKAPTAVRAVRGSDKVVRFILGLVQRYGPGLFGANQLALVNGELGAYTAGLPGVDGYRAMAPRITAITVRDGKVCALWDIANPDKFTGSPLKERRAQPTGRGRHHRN
Kind of data set: EMSA.

The next data set addresses T2, σJSnoaL_2 (Mycobacterium tuberculosis, UniProt L0TCG5 162-312).
T2 sequence: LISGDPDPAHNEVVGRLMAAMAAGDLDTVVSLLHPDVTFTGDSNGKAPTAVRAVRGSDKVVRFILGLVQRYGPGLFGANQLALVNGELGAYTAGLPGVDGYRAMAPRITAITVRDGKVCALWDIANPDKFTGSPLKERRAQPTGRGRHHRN
Kind of data set: EMSA.

The record followed here is paper PMC5766207.

B1: wt-sigIp (dsDNA)
DNA 1: GCTGTCACATTCGGCGGGGCTGTCTCGTCCTTGA
DNA 2: TCAAGGACGAGACAGCCCCGCCGAATGTGACAGC
The molecule B1 came in with a dissociation constant Kd in the data set with σJ of 4.96 ± 0.94 µM. Moreover, the binding result in the data set with σJSnoaL_2 is recorded as “no binding”.
